Read-outs that look alike come from different tables or passages of the source.
What was measured:
SMN Tudor domain (SMN) = target: T1, SMN Tudor domain (SMN) (Homo sapiens, UniProt Q16637); assay: isothermal titration calorimetry (ITC), […] model, N fixed at […]; format: binding
T1 construct: gene SMN1; SMN Tudor domain (80–167 aa), C-terminal His6-tag

[1] = target: SMN Tudor domain (80-167 aa) with a C-terminal His6-tag (UniProt Q16637); assay: ITC; 2 mM or 5 mM ligand in the syringe injected into 200 uM or 300 uM SMN Tudor in the cell; 1x PBS, 25 °C; one site model with stoichiometry (N) fixed at 1
SMN Tudor domain (80-167 aa) with a C-terminal His6-tag, sequence (Q16637 80-167): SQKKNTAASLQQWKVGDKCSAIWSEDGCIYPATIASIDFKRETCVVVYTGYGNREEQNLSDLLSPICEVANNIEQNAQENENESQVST

T1 sequence (Q16637 80-167): as above

Row | Compound | Kd (SMN Tudor domain (SMN); read-out: KD) [µM] | Kd [1] [µM] | dH [1] [kcal/mol] | also measured
1 | CNC(=N)NCCC[C@H](N)C(=O)O [MMA, Methylarginine (L-NMMA)] |  |  |  | Kd (SMN Tudor domain (SMN)): 1800 ± 322 µM
2 | CN(C)C(=N)NCCC[C@H](N)C(=O)O [aDMA, Asymmetric dimethylarginine] | 860 ± 34 |  |  | 
3 | CN=C(NC)NCCC[C@H](N)C(=O)O [sDMA, Symmetric dimethylarginine] | 359 ± 45 |  |  | 
4 | SmD1 heptapeptide AGRGRGR, residues 96–102 of SmD1 |  | > 2000 |  | 
5 | SmD1-aDMA heptapeptide AGRme2aGRGR, residues 96–102 of SmD1 |  | 834 | -8.02 | 
6 | SmD1-sDMA heptapeptide AGRme2sGRGR, residues 96–102 of SmD1 |  | 375 | -14.5 | 

Reference: paper PMC12678802, “Tudor-based proteomic strategy pan-specifically enriches and identifies protein arginine methylation” (EMBO Reports, 2025)
